Source: publication PMC9082959, “Mechanism of Assembly of the Non-Covalent Spectrin Tetramerization Domain from Intrinsically Disordered Partners” (Journal of molecular biology, 2013)
Where a chain is given by its changes, count along the chain named.

Tests used:
Test in all cases: ITC; β16β17 at 25–50 μM in the cell titrated with 15–20 injections to 2–2.5 eq of α0α1; one-site binding model; PBS (50 mM sodium phosphate, 150 mM NaCl, pH 7.04), 25 °C; mutants only against the wild-type partner
Conditions in all cases: both partners purified
β16β17 R13A = molecular target: T1, β16β17 R13A (human, UniProt P11277 1898-2083, R2016A)
T1 construct: erythrocyte β-spectrin, human, residues 1898-2083 (β16β17); mutant of m2; also called R2016A; source: E. coli C41(DE3), purified (Ni2+ agarose, thrombin cleavage, gel filtration)
T1 sequence (looked up): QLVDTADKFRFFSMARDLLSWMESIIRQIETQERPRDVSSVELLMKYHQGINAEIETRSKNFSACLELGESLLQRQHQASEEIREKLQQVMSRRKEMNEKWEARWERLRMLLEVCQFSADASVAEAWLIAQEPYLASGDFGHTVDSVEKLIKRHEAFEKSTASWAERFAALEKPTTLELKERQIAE

β16β17 S16G = molecular target: T2, β16β17 S16G (human, UniProt P11277 1898-2083, S2019G)
T2 construct: erythrocyte β-spectrin, human, residues 1898-2083 (β16β17); mutant of m2; also called S2019G; source: E. coli C41(DE3), purified (Ni2+ agarose, thrombin cleavage, gel filtration)
T2 sequence (looked up): T1 sequence (looked up) with A119R, S122G

β16β17 K43A = molecular target: T3, β16β17 K43A (human, UniProt P11277 1898-2083, K2046A)
T3 construct: erythrocyte β-spectrin, human, residues 1898-2083 (β16β17); mutant of m2; also called K2046A; source: E. coli C41(DE3), purified (Ni2+ agarose, thrombin cleavage, gel filtration)
T3 sequence (looked up): T1 sequence (looked up) with A119R, K149A

β16β17 A50G = molecular target: T4, β16β17 A50G (human, UniProt P11277 1898-2083, A2053G)
T4 construct: erythrocyte β-spectrin, human, residues 1898-2083 (β16β17); mutant of m2; also called A2053G; source: E. coli C41(DE3), purified (Ni2+ agarose, thrombin cleavage, gel filtration)
T4 sequence (looked up): T1 sequence (looked up) with A119R, A156G

β16β17 S57A = molecular target: T5, β16β17 S57A (human, UniProt P11277 1898-2083, S2060A)
T5 construct: erythrocyte β-spectrin, human, residues 1898-2083 (β16β17); mutant of m2; also called S2060A; source: E. coli C41(DE3), purified (Ni2+ agarose, thrombin cleavage, gel filtration)
T5 sequence (looked up): T1 sequence (looked up) with A119R, S163A

β16β17 K67G = molecular target: T6, β16β17 K67G (human, UniProt P11277 1898-2083, K2070G)
T6 construct: erythrocyte β-spectrin, human, residues 1898-2083 (β16β17); mutant of m2; also called K2070G; source: E. coli C41(DE3), purified (Ni2+ agarose, thrombin cleavage, gel filtration)
T6 sequence (looked up): T1 sequence (looked up) with A119R, K173G

Ka (β16β17 R13A): 980000 M⁻¹ | Ka (β16β17 S16G): 360000 M⁻¹ | Ka (β16β17 K43A): 1.8e+06 M⁻¹ | Ka (β16β17 A50G): 163000 M⁻¹ | Ka (β16β17 S57A): 1.5e+06 M⁻¹ | Ka (β16β17 K67G): 140000 M⁻¹
B1: α0α1 (erythrocyte α-spectrin residues 2–163), wild type (domain or fragment, human, UniProt P02549 2-163, looked up)
chain: EQFPKETVVESSGPKVLETAEEIQERRQEVLTRYQSFKERVAERGQKLEDSYHLQVFKRDADDLGKWIMEKVNILTDKSYEDPTNIQGKYQKHQSLEAEVQTKSRLMSELEKTREERFTMGHSAHEETKAHIEELRHLWDLLLELTLEKGDQLLRALKFQQY
notes: synthetic gene (GenScript) in a modified pRSETA plasmid; also called α1α0; source: E. coli C41(DE3), purified (Ni2+ agarose, thrombin cleavage, gel filtration)
